{"source": "paper PMC11813886", "key": {"FHR-B_(Dup.1-3) (mouse)": {"biological_target": "FHR-B_(Dup.1-3) (mouse)", "assay": "AUC; sedimentation velocity, 48000 rpm, protein in PBS pH 7; c(s) distributions with SEDFIT; dimer to monomers"}, "[1]": {"biological_target": "recombinant form of the native mouse FHR-B protein (rFHR-B) (mouse)", "assay": "AUC; sedimentation velocity, 48000 rpm, protein in PBS pH 7; c(s) distributions with SEDFIT; dimer to monomers"}, "[2]": {"biological_target": "recombinant form of the native mouse FHR-B protein (rFHR-B) (mouse)", "assay": "AUC; sedimentation velocity after exposure to pH 2.5 or pH 10.5 and dialysis back to physiological conditions"}, "[3]": {"biological_target": "FHR-B1-3::FHR-1_(4-5) hybrid protein (mouse | human)", "assay": "AUC; sedimentation velocity, 48000 rpm, protein in PBS pH 7; c(s) distributions with SEDFIT; dimer to monomers"}, "[4]": {"biological_target": "FHR-B_(T161A,I166V) (mouse)", "assay": "AUC; sedimentation velocity, 48000 rpm, protein in PBS pH 7; c(s) distributions with SEDFIT; dimer to monomers"}, "[5]": {"biological_target": "FHR-1_(1-3)::FHR-B4-5 hybrid protein (human | mouse)", "assay": "AUC; sedimentation velocity, 48000 rpm, protein in PBS pH 7; c(s) distributions with SEDFIT; dimer to monomers"}, "FHR-B_(Del.1) (mouse)": {"biological_target": "FHR-B_(Del.1) (mouse)", "assay": "AUC; sedimentation velocity, 48000 rpm, protein in PBS pH 7; c(s) distributions with SEDFIT; dimer to monomers"}, "FHR-B_(Y162H) (mouse)": {"biological_target": "FHR-B_(Y162H) (mouse)", "assay": "AUC; sedimentation velocity, 48000 rpm, protein in PBS pH 7; c(s) distributions with SEDFIT; dimer to monomers"}}}
{"substance": "FHR-B_(Dup.1-3)", "values": [{"measurement": "stoichiometry N", "setting": "FHR-B_(Dup.1-3) (mouse)", "value": 2}]}
{"substance": "recombinant form of the native mouse FHR-B protein (rFHR-B) (natural protein)", "values": [{"measurement": "stoichiometry N", "setting": "[1]", "value": 2}, {"measurement": "stoichiometry N", "setting": "[2]", "value": 2}]}
{"substance": "FHR-B1-3::FHR-1_(4-5) hybrid protein", "values": [{"measurement": "stoichiometry N", "setting": "[3]", "value": 2}]}
{"substance": "FHR-B_(T161A,I166V) (natural protein)", "values": [{"measurement": "stoichiometry N", "setting": "[4]", "value": 2}]}
{"substance": "FHR-1_(1-3)::FHR-B4-5 hybrid protein", "values": [{"measurement": "stoichiometry N", "setting": "[5]", "value": 2}]}
{"substance": "FHR-B_(Del.1) (domain or fragment)", "values": [{"measurement": "stoichiometry N", "setting": "FHR-B_(Del.1) (mouse)", "value": 2}]}
{"substance": "FHR-B_(Y162H) (natural protein)", "values": [{"measurement": "stoichiometry N", "setting": "FHR-B_(Y162H) (mouse)", "value": 2}]}
